This passage reports IC50 of free ISG15 for inhibition of ISG15-AMC cleavage and IC50 of free ISG15 for inhibition of Ub-AMC cleavage results from PMC12495856.

Assay [1] has as its target SARS-CoV-2 PLpro TR (truncated form lacking the Ubl domain) (SARS-CoV-2).
Assay [2] concerns the target SARS-CoV-2 papain-like protease (PLpro) wild type (SARS-CoV-2).

In assay [1], “human ISG15 (interferon-stimulated gene product 15) (from UniProt P05161 1-157) (natural protein)” yielded an IC50 of free ISG15 for inhibition of ISG15-AMC cleavage of 2.05 µM and an IC50 of free ISG15 for inhibition of Ub-AMC cleavage of 1.06 µM. In assay [2], this substance registered an IC50 of free ISG15 for inhibition of ISG15-AMC cleavage of 2.05 µM and an IC50 of free ISG15 for inhibition of Ub-AMC cleavage of 1.59 µM.
